Target: androgen receptor (UniProt P10275)
Assay: cell-based or functional assay

Sequence of UniProt P10275 (P10275 whole entry): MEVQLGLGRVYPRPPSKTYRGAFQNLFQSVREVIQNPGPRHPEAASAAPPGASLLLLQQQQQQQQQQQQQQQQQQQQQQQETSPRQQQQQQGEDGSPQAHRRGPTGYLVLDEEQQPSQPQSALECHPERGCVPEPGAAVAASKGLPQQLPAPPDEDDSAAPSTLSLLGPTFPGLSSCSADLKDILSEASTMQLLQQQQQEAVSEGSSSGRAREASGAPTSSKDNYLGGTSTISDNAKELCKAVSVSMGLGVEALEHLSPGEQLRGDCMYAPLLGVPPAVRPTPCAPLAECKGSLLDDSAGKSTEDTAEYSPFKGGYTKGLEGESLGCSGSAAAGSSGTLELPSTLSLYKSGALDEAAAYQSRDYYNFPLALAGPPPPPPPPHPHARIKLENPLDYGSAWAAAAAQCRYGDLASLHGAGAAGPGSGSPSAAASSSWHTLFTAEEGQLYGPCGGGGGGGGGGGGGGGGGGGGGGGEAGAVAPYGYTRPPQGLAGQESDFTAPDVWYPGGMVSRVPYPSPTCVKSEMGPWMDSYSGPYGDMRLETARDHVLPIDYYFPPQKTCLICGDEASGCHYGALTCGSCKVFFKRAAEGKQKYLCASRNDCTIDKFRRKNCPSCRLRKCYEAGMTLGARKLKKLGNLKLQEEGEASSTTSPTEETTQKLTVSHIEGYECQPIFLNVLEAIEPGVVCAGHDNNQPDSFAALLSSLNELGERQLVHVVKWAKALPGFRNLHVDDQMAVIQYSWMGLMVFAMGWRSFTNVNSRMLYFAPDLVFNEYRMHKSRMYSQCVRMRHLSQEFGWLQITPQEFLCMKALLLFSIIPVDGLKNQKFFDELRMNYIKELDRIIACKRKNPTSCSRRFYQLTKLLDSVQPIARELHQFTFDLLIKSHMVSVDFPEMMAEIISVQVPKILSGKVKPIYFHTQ

human androgen receptor down-regulatory-associated protein
luciferase activity of AFP promoter (ARE) reporter in MCF7 and G2 cells (times (relative to the control reporter)): 2
